From patent US20210008207A1 (TECHNISCHE UNIVERSIT T M NCHEN, published 2021)

What was measured:
[1] = target: human CEACAM1-Fc (extracellular domains N-A1-B1-A2 fused to a human heavy chain Fc-domain) (human) (UniProt P13688)
[2] = target: CEACAM6 on transfected CHO cells (human) (UniProt P40199); assay: flow cytometry; CHO transfectant 'CEACAM6' with HopQ as in Fig. 6 b; number in the panel = median; untransfected CHO with HopQ: 6 [cont.) c]
[3] = target: CEACAM5 on transfected CHO cells (human) (UniProt P06731); assay: flow cytometry; CHO transfectant 'CEACAM5' with HopQ as in Fig. 6 b; number in the panel = median; untransfected CHO with HopQ: 6 [cont.) c]
[4] = target: CEACAMs endogenously expressed on MKN45 gastric cancer cells (CEACAM1, CEACAM5 and CEACAM6); assay: flow cytometry; MKN45 cells with myc-His-tagged HopQ, anti c-myc mAb, FITC goat anti-mouse F(ab')2; thin line: control IgG; number in the panel = median
[5] = target: CEACAM3 on transfected CHO cells (human) (UniProt P40198); assay: flow cytometry; CHO transfectant 'CEACAM3' with HopQ as in Fig. 6 b; number in the panel = median; untransfected CHO with HopQ: 6 [cont.) c]
Chain of CEACAM3 on transfected CHO cells (human) (P40198 35-252): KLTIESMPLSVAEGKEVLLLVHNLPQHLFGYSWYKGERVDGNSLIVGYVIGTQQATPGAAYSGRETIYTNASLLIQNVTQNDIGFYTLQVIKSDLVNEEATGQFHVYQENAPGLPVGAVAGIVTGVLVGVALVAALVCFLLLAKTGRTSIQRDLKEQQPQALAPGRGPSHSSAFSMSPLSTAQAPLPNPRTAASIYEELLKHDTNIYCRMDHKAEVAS

[6] = target: human CEACAM1 (hu-CEACAM1-4L) on stably transfected CHO cells (human) (UniProt P13688); assay: flow cytometry; CHO transfectant 'CEACAM1' with HopQ as in Fig. 6 b; number in the panel = median; untransfected CHO with HopQ: 6 [cont.) c]
[7] = target: CEACAM8 on transfected CHO cells (human) (UniProt P31997); assay: flow cytometry; CHO transfectant 'CEACAM8' with HopQ as in Fig. 6 b; number in the panel = median; untransfected CHO with HopQ: 6 [cont.) c]
Chain of CEACAM8 on transfected CHO cells (human) (P31997 35-320): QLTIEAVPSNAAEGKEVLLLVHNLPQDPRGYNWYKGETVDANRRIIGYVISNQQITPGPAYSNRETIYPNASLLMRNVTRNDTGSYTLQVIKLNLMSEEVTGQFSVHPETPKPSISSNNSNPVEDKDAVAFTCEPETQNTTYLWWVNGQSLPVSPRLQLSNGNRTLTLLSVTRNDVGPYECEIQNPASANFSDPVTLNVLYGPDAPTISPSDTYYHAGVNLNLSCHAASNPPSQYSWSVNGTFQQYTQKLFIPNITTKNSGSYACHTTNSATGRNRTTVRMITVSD

[8] = target: CEACAM4 on transfected CHO cells (human) (UniProt O75871); assay: flow cytometry; CHO transfectant 'CEACAM4' with HopQ as in Fig. 6 b; number in the panel = median; untransfected CHO with HopQ: 6 [cont.) c]
Chain of CEACAM4 on transfected CHO cells (human) (O75871 36-244): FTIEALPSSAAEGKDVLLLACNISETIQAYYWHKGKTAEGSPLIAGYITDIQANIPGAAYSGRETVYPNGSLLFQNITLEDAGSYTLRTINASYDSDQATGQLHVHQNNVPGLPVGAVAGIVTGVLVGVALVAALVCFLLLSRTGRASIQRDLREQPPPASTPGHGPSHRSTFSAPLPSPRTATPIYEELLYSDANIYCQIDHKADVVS

[9] = target: CEACAM7 on transfected CHO cells (human) (UniProt Q14002); assay: flow cytometry; CHO transfectant 'CEACAM7' with HopQ as in Fig. 6 b; number in the panel = median; untransfected CHO with HopQ: 6 [cont.) c]
Chain of CEACAM7 on transfected CHO cells (human) (Q14002 36-242): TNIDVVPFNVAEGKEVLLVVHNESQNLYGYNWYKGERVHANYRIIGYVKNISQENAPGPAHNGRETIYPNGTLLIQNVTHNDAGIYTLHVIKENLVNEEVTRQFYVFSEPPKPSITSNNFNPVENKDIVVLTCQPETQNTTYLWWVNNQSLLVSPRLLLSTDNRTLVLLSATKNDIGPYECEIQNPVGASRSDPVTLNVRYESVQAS

[10] = target: CEACAMs endogenously expressed on AGS gastric cancer cells (CEACAM1, CEACAM5 and CEACAM6); assay: flow cytometry; AGS cells with myc-His-tagged HopQ, anti c-myc mAb, FITC goat anti-mouse F(ab')2; thin line: control IgG; number in the panel = median
[11] = target: human CEACAM1 (hu-CEACAM1-4L) on stably transfected CHO cells (human) (UniProt P13688); assay: flow cytometry; CHO-CEACAM1 cells with myc-His-tagged HopQ, anti c-myc mAb, FITC goat anti-mouse F(ab')2; thin line: control IgG; number in the panel = median
[12] = target: CEACAMs endogenously expressed on AGS gastric cancer cells (CEACAM1, CEACAM5 and CEACAM6); assay: cell-based or functional assay
[13] = target: T1, human CEACAM1-Fc (extracellular domains N-A1-B1-A2 fused to a human heavy chain Fc-domain) (human, UniProt P13688 35-428); assay: pull-down of live bacteria with CEACAM-Fc; western blot and flow cytometry with α-hu-IgG-FITC [cont.) c]
T1 construct: extracellular domain; Made in HEK293 cells; also called hu-CEACAM1-Fc; not shown: human heavy chain Fc-domain
T1 sequence: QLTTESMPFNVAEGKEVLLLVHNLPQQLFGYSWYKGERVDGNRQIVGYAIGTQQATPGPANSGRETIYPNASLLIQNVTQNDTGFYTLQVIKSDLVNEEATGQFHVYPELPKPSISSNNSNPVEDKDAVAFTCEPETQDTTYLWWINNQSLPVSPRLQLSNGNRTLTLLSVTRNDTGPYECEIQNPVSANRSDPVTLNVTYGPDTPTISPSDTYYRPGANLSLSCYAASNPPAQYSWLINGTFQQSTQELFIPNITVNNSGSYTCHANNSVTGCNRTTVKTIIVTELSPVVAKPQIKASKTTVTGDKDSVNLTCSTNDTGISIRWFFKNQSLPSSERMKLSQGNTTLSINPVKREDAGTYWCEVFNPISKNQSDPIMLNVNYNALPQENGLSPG

[14] = target: T2, human CEACAM6-Fc (extracellular domains N-A-B fused to a human heavy chain Fc-domain) (human, UniProt P40199 35-320); assay: as above
T2 construct: extracellular domain; Made in HEK293 cells; also called hu-CEACAM6-Fc; not shown: human heavy chain Fc-domain
T2 sequence: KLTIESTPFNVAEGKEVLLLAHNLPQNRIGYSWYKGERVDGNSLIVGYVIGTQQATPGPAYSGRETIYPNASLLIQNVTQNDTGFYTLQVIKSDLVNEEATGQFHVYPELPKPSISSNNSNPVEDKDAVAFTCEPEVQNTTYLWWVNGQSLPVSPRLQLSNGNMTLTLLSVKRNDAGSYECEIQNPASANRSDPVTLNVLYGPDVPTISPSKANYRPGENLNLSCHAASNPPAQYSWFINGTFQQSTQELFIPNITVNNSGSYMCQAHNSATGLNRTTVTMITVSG

[15] = target: T3, recombinant human CEACAM5-Fc (Sino Biological Inc.) (human, UniProt P06731 35-685); assay: as above
T3 construct: also called hu-CEACAM5-Fc; not shown: Fc part of the bought fusion; not described
T3 sequence: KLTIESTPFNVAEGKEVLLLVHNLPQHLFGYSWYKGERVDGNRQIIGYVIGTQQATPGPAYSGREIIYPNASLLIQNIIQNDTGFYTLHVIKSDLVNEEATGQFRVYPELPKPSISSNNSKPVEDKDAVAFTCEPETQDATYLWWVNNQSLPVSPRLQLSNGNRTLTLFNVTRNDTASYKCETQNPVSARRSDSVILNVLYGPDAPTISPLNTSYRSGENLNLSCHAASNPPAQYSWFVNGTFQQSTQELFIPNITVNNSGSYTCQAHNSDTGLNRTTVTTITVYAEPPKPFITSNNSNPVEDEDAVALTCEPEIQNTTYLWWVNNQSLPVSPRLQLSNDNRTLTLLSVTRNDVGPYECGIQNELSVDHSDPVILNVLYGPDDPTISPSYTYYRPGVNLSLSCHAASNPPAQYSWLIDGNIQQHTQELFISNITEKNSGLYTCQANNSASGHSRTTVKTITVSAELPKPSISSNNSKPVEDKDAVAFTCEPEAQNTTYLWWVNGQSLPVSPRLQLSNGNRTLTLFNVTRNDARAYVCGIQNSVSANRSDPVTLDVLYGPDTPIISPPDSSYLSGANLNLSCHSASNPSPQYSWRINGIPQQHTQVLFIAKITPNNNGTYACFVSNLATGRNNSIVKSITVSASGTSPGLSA

Outer membrane protein hopC
Score (Sequest) [1]: 14.4

Outer membrane protein sabB
Score (Sequest) [1]: 23.4

H. pylori strain P12 derived, myc and 6x His-tagged recombinant HopQ
median relative fluorescence (FL1-H) [2]: 12 | median relative fluorescence (FL1-H) [3]: 136 | median relative fluorescence (FL1-H) [4]: 155 | median relative fluorescence (FL1-H) [5]: 18 | median relative fluorescence (FL1-H) [6]: 63 | median relative fluorescence (FL1-H) [7]: 6 | median relative fluorescence (FL1-H) [8]: 6 | median relative fluorescence (FL1-H) [9]: 6 | median relative fluorescence (FL1-H) [10]: 32 | median relative fluorescence (FL1-H) [11]: 18

Outer membrane protein hopZ
Score (Sequest) [1]: 31.7

Outer membrane protein babA
Score (Sequest) [1]: 8

HopQ insertion domain (HopQ-ID) representing peptide (aa 190-218), HA-tagged, synthetic
P12-induced phosphorylation of CagA, concentration needed against HopQ^AD (fold higher concentration than HopQ^AD) [12]: 10 to 20

Outer membrane protein sabA
Score (Sequest) [1]: 6.66

B1: HopQ of H. pylori strain P12, on live wild-type bacteria (compared with the isogenic P12ΔhopQ mutant) (other)
chain: AEDNGVFLSVGYQIGEAVQKVKNADKVQKLSDTYEQLSRLLTNDNGTNSKTSAQAINQAVNNLNERAKTLAGGTTNSPAYQATLLALRSVLGLWNSMGYAVICGGYTKSPGENNQKNFHYTDENGNGTTINCGGSTNSNGTHSSNGTNTLKADKNVSLSIEQYEKIHESYQILSKALKQAGLAPLNSKGEKLEAHVTTSKYQQDSQTKTTTSVIDTTNDAQNLLTQAQTIVNTLKDYCPMLIAKSSSGSGGGAATNTPSWQTAGGGKNSCETFGAEFSAASDMINNAQKIVQETQQLSANQPKNITQPHNLNLNTPSSLTALAQKMLKNAQSQAEILKLANQVESDFNKLSSGHLKDYIGKCDMSAISSTNMTMQSQKNNWGNGCAGVEETLTSLKTSAADFNNQTPQINQAQNLANTLIQELGNNPFRNMGMIASSTTNNGALNGLGVQVGYKQFFGEKKRWGLRYYGFFDYNHAYIKSNFFNSASDVWTYGVGSDLLFNFINDKNTNFLGKNNQISFGLFGGIALAGTSWLNSQFVNLKTISNVYSAKVNTANFQFLFNLGLRTNLARPKKKDSHHAAQHGIELGVKIPTINTNYYSFLDTKLEYRRLYSVYLNYVFAY
binding result [13]: binds | binding result [14]: binds | binding result [15]: binds
